The values that follow come from IntAct's records for PubMed 11579209.

B1: Tyrosine-protein phosphatase non-receptor type 1 (Homo sapiens), P18031 (parent)
chain: MEMEKEFEQIDKSGSWAAIYQDIRHEASDFPCRVAKLPKNKNRNRYRDVSPFDHSRIKLHQEDNDYINASLIKMEEAQRSYILTQGPLPNTCGHFWEMVWEQKSRGVVMLNRVMEKGSLKCAQYWPQKEEKEMIFEDTNLKLTLISEDIKSYYTVRQLELENLTTQETREILHFHYTTWPDFGVPESPASFLNFLFKVRESGSLSPEHGPVVVHCSAGIGRSGTFCLADTCLLLMDKRKDPSSVDIKKVLLEMRKFRMGLIQTADQLRFSYLAVIEGAKFIMGDSSVQDQWKELSHEDLEPPPEHIPPPPRPPKRILEPHNGKCREFFPNHQWVKEETQEDKDCPIKEEKGSPLNAAPYGIESMSQDTEVRSRVVGGSLRGAQAASPAKGEPSLPEKDEDHALSYWKPFLVNMCVATVLTAGAYLCYRFLFNSNT

In the first test the parent is B1. The settings on record: with insr_human INSR.
Regarding S50D, the “effect of a mutation on the interaction” value is reported as “disrupting interaction”.

In the next test the parent is B1. The settings on record: with insr_human INSR. The source holds these as a separate data set.
As for S50A, the “effect of a mutation on the interaction” value is on record as “decreasing interaction”.
